The supplement of paper PMC9170038

Tested on: K4 kissing-loop RNA reporter
Test: apparent KD of K4 kissing-loop reporter; higher = weaker reporter binding
Settings: Eterna round: R107
Experimental: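 RNA-MaP round R107: designed RNA switches with theophylline, tryptophan, arginine or FMN aptamers are transcribed on-chip within common flanks. They are titrated with a labelled K4 kissing-loop RNA reporter in RNA-MaP buffer (100 mM Tris pH 7.5, 80 mM KCl, 4 mM MgCl2), without ligand or with the indicated ligand. Median apparent KD per design.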

[1] = input ligand: theophylline 20 uM
[2] = input ligand: tryptophan 2.4 mM
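Also: bound reporter read as fluorescence of individual clusters on recovered sequencing chips by microscopy, with normalized cluster intensities fitted with a binding model.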

Sequence | apparent KD of K4 kissing-loop reporter (input ligand: FMN 200 uM) | apparent KD of K4 kissing-loop reporter (input ligand: arginine 13.2 mM) | apparent KD of K4 kissing-loop reporter (input ligand: none) | apparent KD of K4 kissing-loop reporter [1] | apparent KD of K4 kissing-loop reporter [2]
UGAUAGCCAGUGAUGUUGGCAUAUACUGAAGGAGCGCGUGAAAACGCAGGUAGGUCGCAGUUCCUUGCCAAUUGAUCGAAAGAUC [#08 K4 Arginine A Exclusion] | 162 nM | 200 nM | 183 nM | 207 nM | 162 nM
UGAUAGGACAGAAGGAGCGGAAGUGAUGUUUCCAAAAGAUAUGGUCGACAAAGUCGACUUUUCCAGGUAGGUCGCUGUCCUAUCU [KL-XARG-B18] | 60.4 nM | 90.1 nM | 67.1 nM | 84.1 nM | 66.6 nM
UGAUAGGACAGAAGGAGCGGAAUGCUGUCCAAAAGGACAGCAAAUAUAACAGGAGUGAUGUUCCAGGUAGGUCGCUGUCCUAUCU [ArgBX 21 #SwitchBubble #StaticStem] | 246 nM | 197 nM | 214 nM | 199 nM | 187 nM
UGAUAGGACAGAAGGAGCGGAGGUCGUCAAAGACGACCAAUAACGUUGAUAGGAGUGAUGUUCCAGGUAGGUCGCUGUCCUAUCU [ArgBX 29 #SwitchBubble #StaticStem] | 147 nM | 127 nM | 121 nM | 152 nM | 95.8 nM
UGAUAGGACAGAAGGAGCGGUAGUGAUGUUACCAAAAGGUUAAGGUGUCAAAAGACACCCUGCCAGGUAGGUCGCUGUCCUAUCU | 117 nM | 98 nM | 106 nM | 89.9 nM | 83.4 nM
UGAUAGGACAGAAGGAGCGGUAGUGAUGUUGCCAAAAGGGUAAGGUGUCAAAAGACACCCUACCAGGUAGGUCGCUGUCCUAUCU | 83.9 nM | 93.2 nM | 84.6 nM | 87 nM | 83.4 nM
UGAUGUUUAGGUCACCCAGUGAUGUUGGAAGGAGCGUGCGAAAGCACAGGUAGGUCGCCAACCUAAAAGUGACCUGAGCAUCUAA [#SwitchBubble 8 #K4Early] | 496 nM | 210 nM | 511 nM | 427 nM | 846 nM
UGCAUCGUUGGCAGGCGCACCACACAGUGUAAGGAUAUGAUGUCGUUCAGAAGGUACGCUUGACCGAGUGAUGUUCGGGAGUGCC [theeternabot_sameState_KL_FMN_A_9] | 224 nM | 200 nM | 218 nM | 245 nM | 196 nM
UGCCGCAAGGCGAGCGCUCCCACUCCGGAAGGAGCGCCCGUAAGGGCAGGUAGGUCGCCGGAGUGAUGUUCCGGUGGAGGGCUCG [#2 Exclusion - Arginine A Attempt #24 (Inspired by Omei)] | 1270 nM | 283 nM | 537 nM | 398 nM | 351 nM
UGGACCAAGGAGUGAUGUUCCAAAUGUGAUACCAGCCACGAAAGUGGCCCUUGGCAGCACUGCCAAAGGACGAAAGUCCGGUCCU [#SwitchBubble 10 #StaticStem #K4Early] | 371 nM | 352 nM | 382 nM | 659 nM | 280 nM
UGGACCUGACUCGAUAAGAGUCAAAGGGAUACCAGCCACGAAAGUGGCCCUUGGCAGCUCUGCCAGUGAUGUUGGUCAAGGUCCU [#SwitchBubble 6 #StaticStem] | 925 nM | 701 nM | 1310 nM | 590 nM | 854 nM
UGGACCUGACUCGAUAAGAGUCAAUGGGAUACCAGCCACGAAAGUGGCCCUUGGCAGCUCUACCAGUGAUGUUGGUCAAGGUCCU [#SwitchBubble 8 #StaticStem] | 1050 nM | 511 nM | 860 nM | 716 nM | 899 nM
UGGAGGAGUGAUGUUCCCGAAACAUGAGAUACCAGCGUCACAGUCCGCCCUUGGCAGCUCGGUCCAAUUUGCCUCGCGGGUAAUG [theeternabot_sameState_KL_Theo_A_23] | 244 nM | 251 nM | 299 nM | 257 nM | 182 nM
UGGAGUUGACGAAAAGUCAACUCCCGAGAAGGAGCGGACGAAAGUCCAGGUAGGUCGCUCGCUACCAGUGAUGUUGGUACAUAAA | 101 nM | 153 nM | 130 nM | 147 nM | 109 nM
UGGAGUUGACGAAAAGUCAACUCCUGAGAAGGAGCGGACGAAAGUCCAGGUAGGUCGCUCACUAGCAGUGAUGUUGCUACAUAAA [#OpenEnded 2] | 202 nM | 211 nM | 219 nM | 253 nM | 208 nM
UGGAGUUGACGAAAAGUCAACUCCUGAGAUACCAGUGACGAAAGUCACCCUUGGCAGCUCACUGCCAGUGAUGUUGGAAAUAAAA [#01 K4 Theophylline A Same State] | 346 nM | 182 nM | 224 nM | 337 nM | 217 nM
UGGAGUUGACGAAAAGUCAACUCCUGAGAUACCAGUGACGAAAGUCACCCUUGGCAGCUCACUGCCAGUGAUGUUGGAAGAUAAA [whbob_SS_Theo_A_w46] | 208 nM | 149 nM | 438 nM | 289 nM | 585 nM
UGGAGUUGACGAAGAGUCAACUCCUGAGAUACCAGUGACGAAAGUCACCCUUGGCAGCUCUCUGCCAGUGAUGUUGGUUUAUAAG [#07 K4 Theophylline A Same State] | 139 nM | 89.4 nM | 144 nM | 177 nM | 117 nM
UGGCGAGUGAUGUUCGUUGUUGUUGUGUGUCGAGGACCGGUACGGCCGCCACUCGAGUUGGUUGUUGUUGUUGCUGUUGUUGCUG [#04 K4 Tryptophan A Same State] | 158 nM | 124 nM | 155 nM | 130 nM | 87.6 nM
UGGUCUGCACGAAGGAGCGCCCUGACAGGUUGCUGCCGUGGGCAGUGAUGUUGCUUAGUCCGGCAGGUAGGUCGCGUGCAGACCA | 210 nM | 205 nM | 243 nM | 189 nM | 170 nM
UGGUUUAACUGAAGGAGCGGCAAUUGAUAAGUAAAUAUAGUGAUGUUAUAUAAGAUAGAGAGCCAGGUAGGUCGCAGAGGUAUUU [ExArgB.O] | 145 nM | 147 nM | 141 nM | 143 nM | 141 nM

Sequence | apparent KD of K4 kissing-loop reporter (input ligand: FMN 200 uM) | apparent KD of K4 kissing-loop reporter (input ligand: arginine 13.2 mM) | apparent KD of K4 kissing-loop reporter (input ligand: none) | apparent KD of K4 kissing-loop reporter [1] | apparent KD of K4 kissing-loop reporter [2]
UGUACCGAAUCAGGAUAUGUCGUCGAAAGACGAAAUGGAGUGAUGUUCCUUAAACUGCGAAAGCAGACAGAAGGGAUUUGGUACU [FmnBS 29 A9+U77] | 161 nM | 386 nM | 470 nM | 403 nM | 385 nM
UGUACCGAGUCAGGAUAUCAUAAAGUUGGAGUGAUGUUCCAAUAACGACUGACAAAGUCGGUCGAUUGAGAAGGGACUUGGUACU [FmnBS 9 #SwitchBubble #StaticStem] | 160 nM | 139 nM | 141 nM | 143 nM | 151 nM
UGUACCGAGUCAGGAUAUGGCGUCGAAAGACGAAUCUUAGUGAUGUUAGGGAUCUGCGAAAGCAGUUCAGAAGGGACUUGGUACU [FmnBS 26 U37+U67] | 349 nM | 427 nM | 506 nM | 556 nM | 515 nM
UGUACCGAGUCAGGAUAUGGCGUCGAAAGACGAAUUCUAGUGAUGUUAGGGAUCUGCGAAAGCAGUUCAGAAGGGACUUGGUACU [FmnBS 26 U36+U67] | 243 nM | 288 nM | 342 nM | 470 nM | 360 nM
UGUACCGAGUCAGGAUAUGUCGUCGAAAGACGAAUCCUAGUGAUGUUAGGGAUCUGCGAAAGCAGUGCAGAAGGGACUUGGUACU [FmnBS 26 U20+G67] | 235 nM | 182 nM | 216 nM | 226 nM | 207 nM
UGUAUCAUCUAAGGAUAUAUCAUGUGAUGCACCGAGUAUCGCAUCAAUUCUGAGUGAUGUUCAGGUAUAGAAGGUAGAUGAUGCA [FMN B SS t2] | 207 nM | 178 nM | 212 nM | 259 nM | 228 nM
UGUAUGGACUGAAGGAGCGCUAGGAAAGUGAGUGAUGUUCAUAUAAAAGUAUAAAGGGUUUGGCAGGUAGGUCGCAGUCCAUACU [KL-SSArg B5] | 225 nM | 344 nM | 234 nM | 270 nM | 135 nM
UGUAUGUGAUUUGAUACCAGACCAGUUGGUGGUAUAUGAGUGAUGUUUAUGUUGGUUUGGGUCCCUUGGCAGCAAAUCGCAUACU [KL-SSTheoB11] | 591 nM | 307 nM | 491 nM | 356 nM | 386 nM
UGUAUGUGAUUUGAUACCAGACCAUCUUGUGAGAAAUGAGUGAUGUUUAUUUUGGUUUGGGUCCCUUGGCAGCAAAUCGCAUACU [KL-SSTheoB24] | 507 nM | 356 nM | 505 nM | 419 nM | 439 nM
UGUAUGUGUCAGCGAGUGAUGUUCGACGAUACCAGACUCGAUAGAGUCCCUUGGCAGCGUAAUGCAUGCCAACUGGCACAUACUA [#SwitchBubble 12 #K4Early] | 745 nM | 651 nM | 837 nM | 608 nM | 597 nM
UGUCAUUGGUCGGCCGCCACUAAAAUAAAAGAGUGAUGUUCUUAAAAGACGGACAAAGUCUGUCAUAGGACCGGGACCGAUGACU [TrypBS 23 #SwitchBubble #StaticStem] | 547 nM | 425 nM | 529 nM | 436 nM | 202 nM
UGUCAUUGGUCGGCCGCCACUAGACGGAUCAUAAGAUCUGUCAAUAAGAGUGAUGUUCUAAAUAAUAGGACCGGGACCGAUGACU [TrypBS 27 #SwitchBubble #StaticStem] | 988 nM | 653 nM | 907 nM | 681 nM | 647 nM
UGUCAUUGGUCGGCCGCCACUAGGACCGGGUUUUACCUAGUGAUGUUAGUAUGAACGGCCGCCACUAGGACCGGGACCGAUGACU [KL-SSTryp-B25 #DoubleAptamer] | 343 nM | 195 nM | 322 nM | 442 nM | 113 nM
UGUCAUUGGUCGGCCGCCACUCCGUAACGAGUGAUGUUCUAAAAGACGGAUCGAAAGAUCUGUCGGAGGACCGGGACCGAUGACU [FiskerMod 7 - Jieux - Same State - Tryptophan B] | 725 nM | 149 nM | 448 nM | 199 nM | 900 nM
UGUCAUUGGUCGGCCGCCACUUCAUAGAGAGUGAUGUUCUUUAAGACGGAUCGAAAGAUCUGUCGAAGGACCGGGACCGAUGACU [FiskerMod 10 - Jieux - Same State - Tryptophan B] | 924 nM | 527 nM | 1390 nM | 777 nM | 262 nM
UGUCAUUGGUCGGCCGCCACUUCAUGUAGAGUGAUGUUCUGUAGGACGGAUCGAAAGAUCUGUCGAAGGACCGGGACCGAUGACU [FiskerMod 14 - Jieux - Same State - Tryptophan B] | 818 nM | 725 nM | 1180 nM | 727 nM | 272 nM
UGUCGGUGAAGAAUGUUAGUGAUGUUGGCACGAGGACCGGUACGGCCGCCACUCGGUAAUCAUCGCAAUUAUCGAUGGCGUAGCC [theeternabot_exclusion_KL_Trp_A_3] | 183 nM | 170 nM | 147 nM | 166 nM | 182 nM
UGUCUGAUGGAAACAUCGGACUUUACUGAUACCAGUAUCGAUAGAUACCCUUGGCAGCAGAAUCAGUAAUAACGAGUGAUGUUCG [Ex Theophylline A K4 3] | 347 nM | 280 nM | 386 nM | 317 nM | 310 nM
UGUGGAGGAUAUGAUACCAGCAGUGAGAGAGAGGAAGUAUAGUGAUGUUAUAUGAGAGAAUGCCCUUGGCAGCGUGUGUAGUAGG [SSTheophylB.J] | 189 nM | 165 nM | 200 nM | 153 nM | 210 nM
UGUGUUUACCUGACUCAGUGAUGUUGAGAAGGAGCGUGCGAAAGCACAGGUAGGUCGCUCAAUCCUUAAUCAGGUGAGCACUAAA [#SwitchBubble 13 #K4Early] | 394 nM | 507 nM | 502 nM | 447 nM | 359 nM
UUAAUAUUGUCGGCCGCCACUGUUUAGUAUUUUGUAUAAUCUAUUUCAAAGUGAUGUUUUGAUUCCAGGACCGGGACAUUUGAUA [JR_Nu_ExcTryptoB_Sub031] | 597 nM | 414 nM | 536 nM | 486 nM | 298 nM
